# From the DeepSol protein solubility set
# Test: soluble on expression in E. coli; label from the status in PepcDB or PDB records
row,Sequence,soluble on expression in E. coli
1,MQNIFDPLIIRGKSLIPIVQGGMGVGVSASGLSSAVARENGIGTIASVDLRHLHEDLLAESQINPSEEKYTSLNCTALDREIQKAKSASEGKGLIAVNVMKAVKDHAAYVRQACESGADAVVMGAGLPLDLPEMTEGYHKDVALLPILSESRGINIVLKRWMKKGILPDAIVVEHPAHAAGHLGASTVEGVNDAKFDFKRVIEETFEVFKNLGLEGEKIPLILAGGMANFEKVKTALKNWGASAVQIGTAFAVTEEGDAHLNFKKTLASAETEKVVEFMSVAGLPARGIRTKFLDSYIRREGKLQANAKADPRRCTQGLNCLTSCGLRDGLSKAGQFCIDIQLAAAFRGEVDKGLFFRGKDQLPFGNAIRTVRETIQYLLTGSEPVATLGR,not soluble
2,MLDKIIEIIMTILPFLGNRKKRKAMAQDVKEFSELVKDQYTFLMEQLEKVLKDYFDLSARVKEMHTEIFSLREQLAQAATLQCVNKECLQRTQSEASISEA,not soluble
3,MKVFNRPILFDIVSRGSPDGLEGLLSFLLTHKKRLTDEEFREPSTGKTCLPKALLNLSAGRNDTIPILLDIAEKTGNMREFINSPFRDVYYRGQTALHIAIERRCKHYVELLVEKGADVHAQARGRFFQPKDEGGYFYFGELPLSLAACTNQPHIVHYLTENGHKQADLRRQDSRGNTVLHALVAIADNTRENTKFVTKMYDLLLIKCAKLFPDTNLEALLNNDGLSPLMMAAKTGKIGIFQHIIRREIADAAAHHHHHH,soluble
4,MGSDKIHHHHHHMIRLLFASLLAASPIHAQGFAGLGTVADGFAVPAPNPTFSFPDDHGPHPDYRIEWWYLTATLTGADGIDYGIQWTLFRSALAPTTSTDWTAPQIFMGHAGLTTPDAHFSAERLARGGIGQAGVTPVPFRAFIDDWEMTSTTAEGDAYDALSLTARGVDFAYDLALQANGPLIFHGQNGFSVKSAEGQASYYYSQPFYTVTGTLTLPTGAVEVSGNAWLDREWSSQPLSDDQSGWDWFSLQLPDGARLMAFALRDTSDQPFTSATYIAPDGTTQAYGDGAITLTPLVTTDVGGRDVPTEWRLQFPDRGIDITTQPLNPQSWMDTSFPYWEGPITFTGTHDGRGYLEMTGYE,not soluble
5,MGSDKIHHHHHHMMITSKSLNRKSIPAPLPSIAEDVLEGLSRTPKSLPPKLLYDATGSDLFEQITCLPEYYPTRTEAGILTVHAEEICSHLRRNVSVSELGAGTATKTRILLRSLVRQQFGVNYFPLDVSDAALQLAKDEVESELSRVKVHPQLGDFDNLTFLEHQSPPRLVLYIGSSIGNLENDAAIALLQNIARNLSTGDKLLLGADLVKDINVMHAAYNDEAGVTALFNKNLLVRINRELSGHFDPESFCHISFWNEAESRIELHLESACRQAVRIDTLDMTFHFDRGERIHTENSYKYTVEHLENLLRSGGFQVEHTWTDPDSWFAVSLGVIT,not soluble
6,MAHHHHHHMITSINVIHELLTTIYCRIFSRKRKDIYKYDVLLYLQDYYYFDVIKRVSDDIKELDDDSITIEINSNEYEVILNGDKSSSFFNHTFENFCIHRGYDIIKDKTYSNEYEKRIDFLHELLCDLLCLLLNENNEKKGKEKEKEEKKNNMNKNMNYNKERVINKMYHNNNHLFKKFWENIQDILKEINILNENKYVEDINEENIKDILYIQKEKLIKNEDIIIKKNVDINKITLLNNLIEKYNNEYKYRFYYIFLNNYLTIQTMFTSNMIYLYSYEIQNIIHKIIKMKINLYQPLTIYDVLAFQYDQIMFHKSSYMNLISPVKKIKILNNIVERGGDPDEFSKKVIIKDVINANISLKAKFNKARTQNDNNWGNNKYKVRNYYDNNRR,soluble
7,MGSDKIHHHHHHMRPATALSVTACGPVSTSRPRAASRAAIRLSSGERRFLIDIDVSKPRLRPMTAMTPTLALERSAASGKVAPTPADLSITVRDRRFGRNSPPGRWWLAGDPVATAWHNALSATFPRGEAFFIEAVKAHREGASPKLEAEIRAFVKQEINHTREHIAFNRAAENAGYDIARIDKRVEEMLALTKDRPVILNLAATMALEHYTAMMAHEFLANPAHFAGAEQEAADMWRWHAIEEIEHKGVAYDTWLHATRDWSRWKRWKVKSLMMVVVTKNFITHRVEDTLDLLAQDGLTGAKWKWRLAAYLLWKPGVIRRILPAWLGYFLPGFHPWKHDDRALIGKADSEFTDAVMPG,not soluble
